test: soluble fraction after stress (log2 fold change); higher = more stays soluble; pooled small domains, quantitative proteomics; conditions: stress: 75 degC
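Further: 20 min heating vs room temperature control held 20 min.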

Sequence | soluble fraction (log2)
HMSSPRAIYSAIQKAVGEDMILYREDVQIILDKLDADLLVDDILEKMELDGTLVRQRDGTWLLL | -0.801
HMSSQVFLGQKNSIAKYDLNENKPIWTKEIKGTPLILSTWKDMLLIQIQTWVSYTHMLVKQENGQTVWE | 0.288
HMSSRLEIEITSKIDDLSHTWRAVGAKQPKGNIKSSLLPSGVKVGETFRVEADFLLDGIEIVSVLPP | -1.86
HMSSSLDQLTVREREILAQVSRGLSNKAIARELGISHDTVKLHVRHILSKLGFSSRVEAAVFAIEHRIG | -2.35
HMSSSMDAIAEIIRSIPRGDHLTAPEVYELAKQRGLKLSLSTVYRTLNKLKVVGDVITVSGDRGLRYESV | -0.336
HMSSTPEPPQAVLDLVNLREQARAGKDWTQSDAFRQQIAALGWTVKDTKDGPVVSLSPTTTE | 0.392
HMSSTSTMTVAEATIGRKVKHDKFGEGTIITVADVNGDKKLTIAFNQQGVKMLMLSMAKLEL | -3.36
HMSSVEVWINGKSSGLTSDNRAQILQQLPAESIERIEVIDNPSAKFSAEGSAGIINIVLKKD | 0.195
HMSSVRDNGDLELVPGDRIRHDDYGEGRVTAVTGVGSKRIAHAVFDSVGERKLLIKLSPIEKI | -0.0574
HMSSWMTKDGKIKPISKWAGVPMTSQQQADYAAGKVVELTNIPDKQGQLNTVYLKFNPEKQRPTTSLNDPR | -0.00849
HMSSYETVTLNGQRYFKYKVKSGEGLYAISRMFSTPIAEIIRHNPSSNAGLKNGQELLIPVN | -0.356
HMSSYMQMQLERLESLLQKNDLTDSDKYDIRQLVEDLDKVPESVSPNLVGAYMTIKNRYASVLKTVL | 0.0189
HMSTANISIEQAKEIALNHANLTSNQVIFSRTELDYDNGIQKYEVEFYYNNREYSYEINANTGDILGYEQ | -0.722
HMSTANIVVPDVKGKTFEEAKKAIEAEGLTAKAEGDESGVVQKTSPSYGVSVESGSEVTLTLVKSDD | 0.494
HMSTDNINYKNILIASLLIHAAKIDENYTENEKNIIKKALIELDEIDSKKADEIMILAEKKE | -0.265
HMSTGYEMVREVANQGSFSKAANSLGVSGPAVSKQVKSLEERLGLVLFHRTTRAVSLTQAGRQLVDVLN | 0.114
HMSTIKEKIIQYLDFKGISKYDFYQKTGVSNGVLSQKSGMSEDNIMRFLSYYDDINTDWLFYGKGEMIKT | -2.06
HMSTKLLEVNIFDDSKWVNKTIMDSDIPEDILIVMIKRGDEVIVPKGSTIINKGDILVLSANNFDNLLN | -2.45
HMSTMTEQEAFGLWERINDFIARTGNEPNRNSNDAHEVRMAEALNFIRIKVAEQRNSQSNSEAQNN | -0.263
HMSTNDIFISGDKLVLKNTTGQMDVFDMAGRKVLSSTNNVSEMNVSSLPKGVYVVSASIGGSKMKAKVYK | 0.536
HMSTQGRRIEILRHLTQTKKKADVNFVELGRTFGTSDTTIRKDLDWLIKNEYWENHGEWKPTQAGLNMI | 0.0518
HMSTRKAFVNGDGVRLRSGPGTNHSIRASLTKGQTVFVTGTKDGWASVSVQGGASGWVSADLLKYE | 0.59
HMSTRYVRTPAGQAEIQARVFKLSRPVRNLLLVINDSRSIDDWLVQVHGITADDVAMLRAEGLIAEVS | -3.06
HMSTSEQVYTTDKVNVRREADTSSEKLGSLEKGTAISRTGTEGEWSVVNYGGVTGYIKTEFLTTEQPQ | 0.63

Sequence | soluble fraction (log2)
HMSTSFQVQVSVLDLRIRKEPTVKGQEVGKISKGIHTITETRSADGYTWGKLESGQGWIALEFTTKLD | -3.72
HMSTSLIEFTIDRNNSIANKMIMDANIPEDILVVMIKRNGDVFVPNGSTKILPGDILVLSGNKLKY | -1.69
HMSTTDGIERFLASGAVKGIGRTMAARIVEHFGSRTLTVMESEPERLTEVAGIGRKKAESIAASYAELS | -0.247
HMSTTYAPYLLGETEQEAIRMARNAGLDPQVVRQSDKSEAGTVILQSHDFGFAMKRGAVILITVSSGPLQ | -2.13
HMSTVTEVHYIAFKNGRIVDIKAALTGSAVTATSIKEQPKIENYNYTTSEVRDGILYHTYAPVA | -2.37
HMSVADNALSRQAIESRIALFIQNEDPNHPRSDADIQKELAQAGVVISRRAITKYRNHLHIPSASLRRR | -1.16
HMSVAPISYSQFESYLEQGKVASVAVGQDTIAGRFTAPVDGKSQFVTTIVNPQILDRIDKSGVEITGV | 0.144
HMSVAVKAPLQGTVMKVNVKPGDTVTKGAPVAVIEALKMENDVPAPQDGVVASVDVKSGDSVKTDQVLLTL | 0.563
HMSVDAMDEANERKMAKTFNMIVLGGLLKIRPIVSIESVIKALRKTLPERHHHLIPMNEEAIHIGMDII | 0.0832
HMSVDDEQLLKIIDDIFQQNPQAVTDAKTDSNAIHFLIGQVMKETKGHADHAISKEIIEKKLS | 0.0407
HMSVDEVEALYLKIAEDRLEGKLPDKVSESDLMRRYGLTKAQLGAILQRIVHEGWIERTPGHGWRFLPIL | -0.538
HMSVFMIIVLKQHAPQEFVDMLMSSIKAKGVQIDVSKGARKTILGLVGNTSVIDREQIAGYEYVDKVIRV | -1.94
HMSVFTDIYHQADHETKLMLIHEIKIVGDEKEFRLLKSIIDSTSNDLSKEANDALNAIKIRLALSK | -2.34
HMSVFTPLTRSELETFLAPYELGRLLDFQGIAAGSENTNYFISLEKGEYVLTLVERGPVAEMPFFIELLD | -1.33
HMSVGDLLENLIRETRAQFSAPPESLGVAEKRRFVALLSQKGGFLLKGAVSRAASVLGVSEQTVYRYLKDS | -1.83
HMSVGDLPPEAREIWKLLDGRELSLDLLAEETGRETGALLSTLMMLEMKLLVEHGSDMVYRRIPRR | -2.85
HMSVHSAELKKLKAHLLGIIGRELETQPSTENREEMVRQILHQSYESLRLNLPMQLKEELFNEILAEVL | -0.459
HMSVLEHVSGNVRRLRLQAGLSQEALARAASVSRRMLVGIESGDVNVSLSTLDRIAAALGVLFPDLVQAP | -2.53
HMSVLPAREQVAAILRQAILLRKFKEGQDLTLKDAAELVGSSITPVREAFQILENEGLIELRPNKGAVVL | -0.627
HMSVPEDLYFRELEVEGNKVRISGIASTNNRVSALMRNFDQSEWFRDPSLIKVESKSPGVNEFEIVMTRI | 0.125
HMSVPNVVGRDQVEASSLLESAGFKVSVKQSYSDSVEQGKVISQSPSGSTTVSPGSTVTITVSQ | 0.395
HMSVPRPSAVEVTSLVTGVRDLLPHLGEGYVERVLVEFGFKVDETINALLEGNLPKHLQDLDPSLTKEI | -1.24
HMSVPVDEVLAALTQKLTDLRTQAMAAKDFSAVDALKAALTEAGVEVRMSKTGVELIAGPRVDAKKLGTL | 0.395
HMSVRPMVEILRVVGSPSPVWVTWARNRAAWLYETGIRPQQRLRMADGTEVLIRLVGEFAHILVVGG | 0.092

Sequence | soluble fraction (log2)
HMSVSATQMDAFVRQLRARLSSADGLDDAARLVRQDLEPFLGRFSDETERDFAAAIEQVRGSIRPVEI | -0.139
HMSVSEAELAEKYHADDLEALKSGKLHEFQENLIDRNGKKYTVQTMKDILTLSDGTRLLLGIGLD | 0.131
HMSVTDDQLRVFTNKSGTKIKAKIVEVSDDKVKLIRDDNKKFIVPINSLSEEDQDYLRDWVSNEAVEP | -0.118
HMSVTIDAGGKVYLQESEIADDQLVPRLVAISNNGYDKPIYLRADKTVGYGRVAEVMSLLNAAGFTKLVLV | -0.513
HMSVTRELMLVKVKVTPEQRAGVSAIVDIFRANIIDVGKESMIIELTGNKSKLEAFIDLLDGYEILELART | -1.46
HMSVTVPDVKRMQAEDAKALLSRYRLRSEVIDSVYVDNIPRGAVVEQIPRENSSVKENRIVFLTINSN | -0.569
HMSVTYRYSYVYNGNTYSDGWSVRRAIENNENKRFGPEPSDLDHEAQKQARVTFWAEHGVEYKEQEVV | -1.24
HMSVYIGVDQAKSIAAEHAGLSNSAVTFSKAKLENDDGMTVYEVEFFYQGTEYDYKIDASTGSILEYDLDR | -1.64
HMSWEDSLLKQAREIIDMYPQKRSAVGPLLHLAQSKDGYISDDSISVISKLVGITEVQLKSVSTFYSMYK | -1.74
HMSWEELLEHLEKAAERGEEVRIAGVTLHDEEDFKRALRWLKEWL | -2.7
HMSYIGEEKAKSIAVSNVKGAGTNNVVKVEFDYDDGRAVYEVKVVYNAMEYEFEIDASNGKILSRDAESIY | -1.45
HMSYKFDSLAIILNKLDGKETVNVSSLSDELEVSARTVHRYIGTLQVAGFPIEYDKTKNSYIFSEGYTL | -0.794
HMSYQFKIKNNAAVEVTVSEKNNLLGSTYGDKATVAAGMEKNVTFYTDKPDVVVDTNGNFTITVHDKEIII | 0.0601
HMSYSYIYNYALKVKMDISSTGGKKPYAYYYYDHSYKLAEEILSLSEETESIELQNKYDELKDFYENP | -1.79
HMSYTWHDMYLLAQEYQKEHGNLIIPRNYKGKNGLNLGYWLYKEKLKYRQGKLAPEKIIALEHIGIVWT | -1.25
HMSYYKEMIRLADSIADKAHEGQTDRNGWPYISHPRRVALGARKLVSEMASSTSPDTSLEELKAEVQIVAL | -0.321
HMTAAPEVRVEGLFKGAAVLKIDGQQVMLKKGRSHSSGVTLVDANAHRAIVEIDGQRHELALHMA | -0.0588
HMTADIRFLNSRKFYIYKVEKGETLFSISQKFNIPQEEIIQFNKDINQQGLKAKTKLWVPAYSWL | -3.46
HMTAGTGIAYSEFRSKVQEGQVKDVAIAPDRITGTLSSGQKFSTVPVNDPGLPKMLDDFNVKYSGQA | 0.139
HMTAIWKTITATLTHDIATGKYAPGDRLPTEAQLAARFGVNRHTVRRAISDMNESGLTYSRRGAGVFVAQ | -2.56
HMTALAVGDRVKMDKSATIYGTMRKFAAWVYATKLYVRGIDGNRVVVSTLKSGAITGAVDKKHLTK | -1.61
HMTAMDTQQKKLIIMYHDIHRLRNVEHFTIQRIADHLLLNFRTVKKFLEMTQEEFDKFSENRW | -2.89

— the domain aggregation screens of Martell et al. (2025)
